This passage reports Binding (wt/variant) and Dissociation (wt/variant) results from patent publication US20090098103A1.

Test [1] concerns the target Human Recombinant TFPI (R&D Systems) (human) (UniProt P10646). The experiment in a line: SPR (Biacore T100), TFPI on CM5 chip, 320 nM FVIIa + 620 nM sTF; 293-F cells. In general terms: SPR reads the build-up and loss of mass on a sensor chip optically.
The target is the same in test [2]. The experiment in a line: SPR (Biacore T100), TFPI on CM5 chip, 320 nM FVIIa + 620 nM sTF; BHK-21 cells.

Sequence of UniProt P10646 (P10646 29-282): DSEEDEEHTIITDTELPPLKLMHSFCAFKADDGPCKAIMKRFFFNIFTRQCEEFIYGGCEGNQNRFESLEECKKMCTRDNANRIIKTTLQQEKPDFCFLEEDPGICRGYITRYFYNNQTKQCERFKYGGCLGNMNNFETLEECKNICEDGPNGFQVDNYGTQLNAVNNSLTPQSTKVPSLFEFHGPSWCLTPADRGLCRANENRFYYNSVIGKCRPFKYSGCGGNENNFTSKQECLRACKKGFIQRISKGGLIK

In the case of “FVIIa variant CB735 K341D (from UniProt P08709 61-466) (enzyme)”, in test [1], the Binding (wt/variant) turned out to be 186 and the Dissociation (wt/variant) is 381.
For the substance “FVIIa variant CB854 G237T238insS (from UniProt P08709 61-466) (enzyme)”, the Binding (wt/variant) in test [2] was 5.2.
With “FVIIa variant CB696 G237V/M298Q/K341Q (from UniProt P08709 61-466) (enzyme)”, in test [1], the Binding (wt/variant) turned out to be 4.5 and the Dissociation (wt/variant) was found to be 6.
For the substance “FVIIa variant CB733 K341N (from UniProt P08709 61-466) (enzyme)”, in test [1], the Binding (wt/variant) was 11.3 and the Dissociation (wt/variant) was 63.8.
The like results for “FVIIa variant CB563 K199E (from UniProt P08709 61-466) (enzyme)” were, in that order, 1.4 and 1.4.
As for “FVIIa variant CB856 G237T238insAS (from UniProt P08709 61-466) (enzyme)”, in test [2], the Binding (wt/variant) came to 22.8 and the Dissociation (wt/variant) worked out at 154.
Consider “FVIIa variant CB697 R290N (from UniProt P08709 61-466) (enzyme)”, for which, in test [1], the Binding (wt/variant) was 1.6 and the Dissociation (wt/variant) was 1.5.
Take “FVIIa variant CB558 K197E (from UniProt P08709 61-466) (enzyme)”: in test [1], the Binding (wt/variant) was determined as 1.4 and the Dissociation (wt/variant) was 1.3.
In the case of “FVIIa variant CB593 V158D/E296V/M298Q (from UniProt P08709 61-466) (enzyme)”, the values for the Binding (wt/variant) in test [1] and in test [2] were 0.8 and 1, respectively. Moreover, the Dissociation (wt/variant) in test [1] came out at 0.8; in test [2], 1.
On to “FVIIa variant CB608 G237V (from UniProt P08709 61-466) (enzyme)”, for which, in test [1], the Binding (wt/variant) stood at 2.2 and the Dissociation (wt/variant) was found to be 1.8.
“FVIIa variant CB592 M298Q (from UniProt P08709 61-466) (enzyme)”: in test [1], the Binding (wt/variant) was found to be 1.9 and the Dissociation (wt/variant) was found to be 1.8.
In the case of “FVIIa variant CB863 D196K197insM (from UniProt P08709 61-466) (enzyme)”, in test [2], the Binding (wt/variant) came to 0.4 and the Dissociation (wt/variant) stood at 0.4.
Consider “FVIIa variant CB862 D196K197insA (from UniProt P08709 61-466) (enzyme)”, for which, in test [2], the Binding (wt/variant) was 0.5 and the Dissociation (wt/variant) is 0.4.
Regarding “FVIIa variant CB691 K197E/K199E/K341Q (from UniProt P08709 61-466) (enzyme)”, in test [1], the Binding (wt/variant) was 33.9 and the Dissociation (wt/variant) is 68.1.
For “FVIIa variant CB701 R290V (from UniProt P08709 61-466) (enzyme)”, in test [1], the Binding (wt/variant) is 2.6 and the Dissociation (wt/variant) was 2.7.
For “FVIIa variant CB692 K197E/G237V/M298Q/K341Q (from UniProt P08709 61-466) (enzyme)”, in test [1], the Binding (wt/variant) was determined as 15.9 and the Dissociation (wt/variant) turned out to be 21.5.
For “FVIIa variant CB688 K197E/K199E (from UniProt P08709 61-466) (enzyme)” the same measures were 2.2 and 2.1.
With “FVIIa variant CB857 G237T238insSA (from UniProt P08709 61-466) (enzyme)”, in test [2], the Binding (wt/variant) was determined as 21.5 and the Dissociation (wt/variant) was found to be 146.
For the substance “FVIIa variant CB902 K197E/M298Q (from UniProt P08709 61-466) (enzyme)”, in test [1], the Binding (wt/variant) is 2.6 and the Dissociation (wt/variant) worked out at 2.3.
Consider “wild-type Factor VII polypeptide (CB553-02), activated (FVIIa) (from UniProt P08709 61-466) (enzyme)”, for which the Binding (wt/variant) in test [1] and in test [2] was 1 throughout. Besides, the Dissociation (wt/variant) in test [1] and in test [2] was 1 throughout.
As for “FVIIa variant CB671 K197E/G237V/K341Q (from UniProt P08709 61-466) (enzyme)”, in test [1], the Binding (wt/variant) amounted to 18.9 and the Dissociation (wt/variant) was 21.8.
The like results for “FVIIa variant CB734 K341M (from UniProt P08709 61-466) (enzyme)” were, in that order, 4.9 and 5.4.
Turning to “FVIIa variant CB689 K197E/G237V (from UniProt P08709 61-466) (enzyme)”, in test [1], the Binding (wt/variant) was 1.8 and the Dissociation (wt/variant) was 1.6.
Take “FVIIa variant CB694 K199E/K341Q (from UniProt P08709 61-466) (enzyme)”: in test [1], the Binding (wt/variant) stood at 18.8 and the Dissociation (wt/variant) turned out to be 30.7.
For “FVIIa variant CB865 K197I198insY (from UniProt P08709 61-466) (enzyme)”, in test [2], the Binding (wt/variant) was 1.1 and the Dissociation (wt/variant) stood at 1.
“FVIIa variant CB609 K341Q (from UniProt P08709 61-466) (enzyme)”: the Dissociation (wt/variant) in test [1] came out at 19.7.
On to “FVIIa variant CB853 G237T238insA (from UniProt P08709 61-466) (enzyme)”, for which, in test [2], the Binding (wt/variant) came out at 6.5 and the Dissociation (wt/variant) is 18.2.
“FVIIa variant CB867 K197I198insS (from UniProt P08709 61-466) (enzyme)”: in test [2], the Binding (wt/variant) came out at 0.7 and the Dissociation (wt/variant) was 0.6.
For the substance “FVIIa variant CB637 K197E/K341Q (from UniProt P08709 61-466) (enzyme)”, in test [1], the Binding (wt/variant) was 67.2 and the Dissociation (wt/variant) was determined as 171.
As for “FVIIa variant CB700 R290M (from UniProt P08709 61-466) (enzyme)”, in test [1], the Binding (wt/variant) was found to be 1.1 and the Dissociation (wt/variant) turned out to be 1.1.
As for “FVIIa variant CB698 R290Q (from UniProt P08709 61-466) (enzyme)”, in test [1], the Binding (wt/variant) amounted to 1.3 and the Dissociation (wt/variant) was determined as 1.2.
Consider “FVIIa variant CB858 D196K197insK (from UniProt P08709 61-466) (enzyme)”, for which, in test [2], the Binding (wt/variant) amounted to 1 and the Dissociation (wt/variant) turned out to be 0.8.
“FVIIa variant CB693 K197E/K199E/G237V/M298Q/K341Q (from UniProt P08709 61-466) (enzyme)”: in test [1], the Binding (wt/variant) came out at 23.4 and the Dissociation (wt/variant) was found to be 43.5.
Consider “FVIIa variant CB695 G237V/M298Q (from UniProt P08709 61-466) (enzyme)”, for which, in test [1], the Binding (wt/variant) came to 0.9 and the Dissociation (wt/variant) was determined as 0.8.
Regarding “FVIIa variant CB859 D196K197insR (from UniProt P08709 61-466) (enzyme)”, in test [2], the Binding (wt/variant) amounted to 0.5 and the Dissociation (wt/variant) amounted to 0.5.
Consider “FVIIa variant CB855 G237T238insV (from UniProt P08709 61-466) (enzyme)”, for which, in test [2], the Binding (wt/variant) turned out to be 7.3 and the Dissociation (wt/variant) was 16.8.
Regarding “FVIIa variant CB670 G237V/K341Q (from UniProt P08709 61-466) (enzyme)”, in test [1], the Binding (wt/variant) was determined as 12.8 and the Dissociation (wt/variant) came out at 12.4.
For the substance “FVIIa variant CB699 R290K (from UniProt P08709 61-466) (enzyme)”, in test [1], the Binding (wt/variant) was determined as 0.7 and the Dissociation (wt/variant) was 0.7.
On to “FVIIa variant CB864 K197I198insE (from UniProt P08709 61-466) (enzyme)”, for which, in test [2], the Binding (wt/variant) was 1.3 and the Dissociation (wt/variant) was determined as 1.1.
Regarding “FVIIa variant CB945 M298Q/K341D (from UniProt P08709 61-466) (enzyme)”, in test [1], the Binding (wt/variant) is 147 and the Dissociation (wt/variant) stood at 196.
